Measurements reported in the nanobody polyreactivity screen of Harvey et al. (2022).

assay: yeast display, Sf9 membrane polyspecificity reagent, FACS + sequencing; frameworks hold sequencing errors
In short: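 In a synthetic yeast display library (Saccharomyces cerevisiae BJ5465), nanobody expression was induced with galactose for 36–48 hours. FACS gates were set low and high (top ~1%) using anti-HA fluorescence for expression and streptavidin fluorescence for binding of the Sf9 membrane reagent. Each polyreactivity label is drawn from the gate of origin.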

Sequence	polyreactivity (PSR sort gate)
QVQLVESGGGLVQAGGSLRLSCAASGNIFAIYAMGWYRPAPGKEREFVAAIDWSVASTYYADSVKGRFTISRDNAKNTVYLKMNSLKPEDTAVYYCAAELYCLKYGYYLSYDYWGQGTQVTVSS	high polyreactivity
QVQLVESGGGLVQAGGSLRLSCAASGNIFAIYARGWYRQAPGKEREFVAAIDWSVASTYYADSVKGRFTISRDNEKNTVYLQMNSLTPEDTAVYSSAAELYGLKYGYYLSYDYWGQGTQVTVSS	high polyreactivity
QVQLVESGGGLVQAGGSLRLSCAASGNIFAYNAMGWYRQAPGKERELVASIRYSGGSTYYADSVKGRFTISRDNAKNTVYLQMNSLKPEDTAVYYCAKRGYSSYRTYNYWGQGTQVTVSS	high polyreactivity
QVQLVESGGGLVQAGGSLRLSCAASGNIFDLYAMGWYRQAPGKERELVAAITRSSSRTYYADSVKGRFTISRDNAKNTVYLQMNSLKPEDTAVYYCAAKYSNGSGFDYWGQGTQVTVSS	high polyreactivity
QVQLVESGGGLVQAGGSLRLSCAASGNIFDRYAMGWYRQAPGKERELVAGITWSGGSTYYADSVKGRFTISRDNAKNTVYLQMNSLKPEDTAVYYCGEANYYWGHGTQVTVSS	low polyreactivity
QVQLVESGGGLVQAGGSLRLSCAASGNIFDSNAMGWYRQAPGKERELVAAITWSGGSTYYADSVKGRFTISRDNAKNTVYLQMNSLKPEDTAVYYCNRYIRYYAWFGYWGQGTQVTVSS	high polyreactivity
QVQLVESGGGLVQAGGSLRLSCAASGNIFDTYVMGWYRPAPGTERELVAAISSAGSTNYADSVKGRFTISRDNAKNTVYLQMNSLKPEDTAVYYCNADYWYYGYDYWGQGTQVTVSS	low polyreactivity
QVQLVESGGGLVQAGGSLRLSCAASGNIFESYGMGWYRHAPGKERELVATINTSSGSTYDADSVKGRFTISRDNAKNTVYLQMNSLKPEDTAVYYCAAEWYPYPWGYGYWGQGTQVTVSS	low polyreactivity
QVQLVESGGGLVQAGGSLRLSCAASGNIFETYAMGWYRQAPGKERELVAVITRGGSTYYADSVKGRFTISRDNAKNTVYLQMNSLKPEDTAVYYCARDAFDDWYGLTDDKSDYWGQGTQVTVSS	low polyreactivity
QVQLVESGGGLVQAGGSLRLSCAASGNIFFGNAMGWYRQAPGKERELVAVISKRGGSTYYADSVKGRFTISRDNAKNTVYLQMNSLKPEDTAVYYCAKVPTSRGNQLQQDGTKYDYWGQGTQVTVSS	high polyreactivity
QVQLVESGGGLVQAGGSLRLSCAASGNIFFTNAMGWYRQAPGKDRELVATISFRGTSTYYADSVKGRFTISRDNAKNTVYLQMNSLKPEDTAVYYCTARYSVFHRARVNLLGWGLYYWGQGTQVTVSS	low polyreactivity
QVQLVESGGGLVQAGGSLRLSCAASGNIFGAYAMGWYRQAPGKERELVARINSGAITNYADSVKGRFTISRDNAKNTVYLQMNSLKPEDTAVYYCNKDTYYAGSYLDYDYWGQGTQVTVSS	low polyreactivity
QVQLVESGGGLVQAGGSLRLSCAASGNIFGHYTRGWYRQAPAKERELVAAISRTGGRTYYADSVKGRFTISRDNAKNTVYLQMNSLKPEDTAVYDCDADKGGTYFNGDSWGQGTQVTVSS	high polyreactivity
QVQLVESGGGLVQAGGSLRLSCAASGNIFGLNSMGWYRQAPGIDRELVSAISKSGGSTFYADSVKGRFKISRDNAKNTVYLQMNSLKPEDTAVYYCAARWNGARPNHTYGYWGQGTQVTVSS	high polyreactivity
QVQLVESGGGLVQAGGSLRLSCAASGNIFGSYAMGWYRQAPGKERELVAAIRTSGGSTYYADSVKGRFTISRDNAKNTVYLQMNSLKPEDTAVYYCATRSRTTKIVRWPGMYYWGQGTQVTVSS	high polyreactivity
QVQLVESGGGLVQAGGSLRLSCAASGNIFGVDAMGWYRQAPGKERELVATITTGGSTYYADSVKGRFTISRDNAKNTVYLQMNSLKPADTAVYYCAADVGGGNYVYYGNDYDDGYWGQGTQVTVSS	low polyreactivity
QVQLVESGGGLVQAGGSLRLSCAASGNIFHDNAMGWYREAPGKERELVAAISDSGGSTYYADSVKGRFTISRDNAKNTVYFQMNSLQPEDTAVYYCDSGRTYYAPYQWWYDYWGQGTQVTVSS	high polyreactivity
QVQLVESGGGLVQAGGSLRLSCAASGNIFHKNAMGWYSQAPGKERELVASISWSGGSTYYADSVKGRFTISRDNAKNTVYLQMKSLKPEDTAVYYCATDAFGYPGNRYALNDYWGQGTQVTVSS	low polyreactivity
QVQLVESGGGLVQAGGSLRLSCAASGNIFIKNAMGWYRQAPGKERELVAAISFSGGSTYYADSVKGRFTISRDNAKNTVYLQMNSLKPEDTAVYYCNAVRRQARQYDYWGQGTQVTVSS	high polyreactivity
QVQLVESGGGLVQAGGSLRLSCAASGNIFIYNAMGWNRQAPGKERELVAAISVSGGDTYYADSVKGRFTISRDNAKYTVYLQLNSLKPEDTAVYYCAAEAEYIELDYWGQGTQVTVSS	low polyreactivity
QVQLVESGGGLVQAGGSLRLSCAASGNIFPAYAMGWYRQAPGKERELVAAISKSGGRTYYAESVKGRFTISRDNAKNTVYLQMNSLKQEDTAVYYALLTVRRAVPYSVRYDYWGQGTQVTVSS	high polyreactivity
QVQLVESGGGLVQAGGSLRLSCAASGNIFPIYPMGWYRQAPGKERELVASIYRGGTTYYADSVKGRFTISRDNAKNTVYLQMNSLKPEETAVYYCAVYSPRLRRVHTRGYWGQGTQVTVSS	high polyreactivity
QVQLVESGGGLVQAGGSLRLSCAASGNIFPPNTMGWYRQAPGKERELVAVITWSDGGTYADSVKGRFTISRDNAKNTVYLQMNSLKPEDSAVYYCNADYYFAAPKGEYTAWYDYWGQGTQVTVSS	low polyreactivity
QVQLVESGGGLVQAGGSLRLSCAASGNIFPPYAMGWYRQAPGKERELVAAITRSGASTYYADSVKGRFTISRDNAKNTVYLQMNSLKPEDTAVYYCAVGVPGGYWKYYYWGQGTQVTVSS	high polyreactivity
QVQLVESGGGLVQAGGSLRLSCAASGNIFPWYAMGWYRQAPGKERELVASITVSGGRTYYADSVKGRFTISRDNAKNTVYLQMNSLKPEDTAVYYCNKYLVWYVPGAYNSWGQGTQVTVSS	high polyreactivity
QVQLVESGGGLVQAGGSLRLSCAASGNIFPYYPMGWYRQAPGKERELVASISRSGGSTYYADSVKGRFTISRDNAKNTVYLQMNSLKPEDTAVYYCAKRTPYYGFGFFHPARGYGYWGQGTQVTVSS	low polyreactivity
QVQLVESGGGLVQAGGSLRLSCAASGNIFRGYTMGWSRQAPGKERELVAAISYSGGSTYADSVKGRFTISRDNAKNTVYLQMNSLKPEDTAVYYCNTDTSVDVRFDYWGQGTQVTVSS	low polyreactivity
QVQLVESGGGLVQAGGSLRLSCAASGNIFRPYTMGWYRQAPGKERELVARISSGGSTNYADSVKGRFTISRDNAKNTVYLQMNSLKPEDTAVYYCNTVFRGSSTRGYDYWGQGTQVTVSS	high polyreactivity
QVQLVESGGGLVQAGGSLRLSCAASGNIFRRYAMGWYRQAPGKERELVAAISISGGNTYYADSVKGRFTISRDNAKNTVYLQMNSLKPEDTAVYYCNAVGRYSEYGYWGQGTQVTVSS	high polyreactivity
QVQLVESGGGLVQAGGSLRLSCAASGNIFRYYTMGWYRQAPGKERELVATISYADSVKGRFTISRDNAKNTVYLQMNSLKPEDTAVYYCKADFAPWDKQDYPYDYDYWGQGTQVTVSS	low polyreactivity
